According to patent publication US8889130B2, “Treatment of osteoarthritis and pain” (Abbvie Inc., priority 2011, dated 2014):

T1: hIL-1α (Homo sapiens, UniProt P01583)
T1 sequence (P01583 113-271): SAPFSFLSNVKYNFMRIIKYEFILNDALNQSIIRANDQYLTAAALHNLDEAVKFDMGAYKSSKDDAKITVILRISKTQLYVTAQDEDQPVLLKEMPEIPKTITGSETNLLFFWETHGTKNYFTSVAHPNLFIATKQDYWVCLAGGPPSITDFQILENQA


Key:
hIL-1β [1] = target: T2, hIL-1β (Homo sapiens, UniProt P01584); assay: Tetravalent dual-specific antigen binding by Biacore (sequential antigen injection), hIL-1β; conditions: for Response Unit, 1st antigen hIL-1β: hIL-1β injected as 1st antigen on captured DVD-Ig; for Response Unit, 2nd antigen hIL-1β: hIL-1β injected as 2nd antigen after hIL-1α
T2 sequence (P01584 117-269): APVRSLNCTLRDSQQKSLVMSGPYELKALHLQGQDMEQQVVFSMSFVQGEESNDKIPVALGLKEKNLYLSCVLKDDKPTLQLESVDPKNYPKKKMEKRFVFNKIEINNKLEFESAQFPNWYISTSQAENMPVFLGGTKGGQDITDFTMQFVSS
Method: (§1) The kinetics of DVD-Ig molecules binding to rhIL1-α and rhIL1-β was determined by surface plasmon resonance-based measurements with a Biacore 3000 instrument (Biacore AB, Uppsala, Sweden) using HBS-EP (10 mM HEPES, pH 7.4, 150 mM NaCl, 3 mM EDTA, and 0.005% surfactant P20) at 25° C. All chemicals were obtained from Biacore AB (Uppsala, Sweden) or otherwise from a different source as described herein. Approximately, 5000 RU of goat anti-human IgG Fcγ fragment specific polyclonal antibody (Pierce Biotechnology Inc, Rockford, Ill.) diluted in 10 mM sodium acetate (pH 4.5) was directly immobilized across a CM5 research grade biosensor chip using a standard amine coupling kit according to manufacturer's instructions and procedures at […]. Unreacted moieties on the biosensor surface were blocked with ethanolamine. Modified carboxymethyl dextran surface in flowcell 2 and 4 was used as a reaction surface. Unmodified carboxymethyl dextran without goat anti-human IgG in flow cell 1 and 3 was used as the reference surface. For kinetic analysis, rate equations derived from the 1:1 Langmuir binding model were fitted simultaneously to association and dissociation phases of all ten injections (using global fit analysis) using the Bioevaluation 4.0.1 software. Purified DVD-Ig samples were diluted in HEPES-buffered saline for capture across goat anti-human IgG Fc specific reaction surfaces and injected over reaction matrices at a flow rate of […]. The association and dissociation rate constants, kon (M-1s-1) and koff (s-1) were determined under a continuous flow rate of […]. Rate constants were derived by making kinetic binding measurements at ten different antigen concentrations ranging from 1.25 to 1000 nM. The equilibrium dissociation constant (M) of the reaction between DVD-Ig molecule and rhIL1α/β was then calculated from the kinetic rate constants by the following formula: KD=koff/kon. Aliquots of rhIL1α/β samples were also simultaneously injected over a blank reference and reaction CM surface to record and subtract any nonspecific binding background to eliminate the majority of the refractive index change and injection noise. Surfaces were regenerated with two subsequent […] injections of 10 mM Glycine (pH 1.5) at a flow rate of […]. The anti-Fc antibody immobilized surfaces were completely regenerated and retained their full capture capacity over twelve cycles. The apparent stoichiometry of the captured DVD-Ig-rhIL1α/β complex was calculated under saturating binding conditions (steady-state equilibrium) using the following formula: […]
(§2) In addition, tetravalent dual-specific antigen binding of DVD-Ig binding protein was also analyzed by Biacore (Table 14). DVD-Ig binding protein was first captured via a goat anti-human Fc antibody on the Biacore sensor chip, and the first antigen was injected and a binding signal observed. As the DVD-Ig binding protein was saturated by the first antigen, the second antigen was then injected and the second signal observed. This was done either by first injecting IL-1β then IL-1α or by first injecting IL-1α followed by IL-1β for DVD2-Ig binding protein. In either sequence, a dual-binding activity was detected. Similar results were obtained for DVD1-Ig binding protein. Thus, each DVD-Ig binding protein was able to bind both antigens simultaneously as a dual-specific tetravalent molecule. […] Upon the injection of the second antigen, while DVD-Ig binding protein was already occupied by the first antigen, the stoichiometry of both DVD-Igs binding protein to the second antigen (i.e., hIL-1α or hIL-1β was between 1.0 and 1.3. Thus, DVD-Ig binding protein was able to bind two IL-1α and two IL-β molecules. DVD-Ig binding protein was first captured via a goat anti-human Fc antibody on the Biacore sensor chip, and the first antigen was injected and a binding signal observed, followed by the injection of the second antigen.

hIL-1α [2] = target: T1, hIL-1α; assay: Tetravalent dual-specific antigen binding by Biacore (sequential antigen injection), hIL-1α; conditions: for Response Unit, 1st antigen hIL-1α: hIL-1α injected as 1st antigen on captured DVD-Ig; for Response Unit, 2nd antigen hIL-1α: hIL-1α injected as 2nd antigen after hIL-1β
Method: as §1, §2

hIL-1α [3] = target: T1, hIL-1α; assay: MRC-5 bioassay: neutralization of hIL-1α-induced IL-8 production; format: cell-based; conditions: for IC50: antigen hIL-1α, read-out: Potency IC50
Method: The MRC-5 cell line is a human lung fibroblast cell line that produces IL-8 in response to human IL-1α and IL-1β in a dose-dependent manner (see, Dinarello, Muegge, and Durum (2000) Curr. Protocols Immunol. 6:1). MRC-5 cells were cultured in 10% FBS complete MEM and grown at 37° C. in a 5% CO2 incubator. […] The supernatants were harvested, diluted, and IL-8 concentrations measured by ELISA using a standard IL-8 ELISA kit (R&D Systems). Antibody potency was determined by its ability to inhibit IL-8 production by MRC-5 cells.
The biological activity of DVD-Ig was measured using MRC-5 bioassay. The MRC-5 cell line is a human lung fibroblast cell line that produces IL-8 in response to human IL-1α and IL-1β in a dose-dependent manner. MRC-5 cells were obtained from ATCC and cultured in 10% FBS complete MEM at 37° C. in a 5% CO2 incubator. To determine neutralizing activity of the DVD-Ig against human IL-1α or IL-1β, 50 μl of antibody (1×10^−7 to 1×10^−12 M) in MEM/10% FBS was added to a 96 well plate and pre-incubated with 50 μl of hIL-1α or hIL-1β (200 pg/ml) for 1 hour at 37° C., 5% CO2. MRC-5 cells at a concentration of 1×10^5/ml were then added (100 μl) to all wells, and the plates were incubated overnight at 37° C. in a 5% CO2 incubator. The supernatants were harvested and human IL-8 production measured by standard ELISA (R&D Systems, Minneapolis, Minn.). Neutralizing activity of the DVD-Ig binding protein was determined by its ability to inhibit IL-8 production.

hIL-1β [4] = target: T2, hIL-1β; assay: Surface plasmon resonance (Biacore) binding kinetics and affinity to hIL-1β; conditions: for koff / kon / Kd / Stoichiometry: antigen hIL-1β; for Kd: KD=koff/kon; for Stoichiometry: saturating binding conditions
Method: as §1

[5] = hIL-1β injected as 2nd antigen, DVD-Ig already saturated with hIL-1α
[6] = hIL-1α injected as 2nd antigen, DVD-Ig already saturated with hIL-1β

| Molecule | Stoichiometry hIL-1β:DVD-Ig (hIL-1β [1]; hIL-1β injected as 1st antigen) | Response Unit, 1st antigen hIL-1β (hIL-1β [1]) [Response Unit] | Response Unit, 2nd antigen hIL-1β (hIL-1β [1]) | Stoichiometry hIL-1β:DVD-Ig (hIL-1β [1]; [5]) | Stoichiometry hIL-1α:DVD-Ig (hIL-1α [2]; hIL-1α injected as 1st antigen) | Response Unit, 1st antigen hIL-1α (hIL-1α [2]) [Response Unit] | Response Unit, 2nd antigen hIL-1α (hIL-1α [2]) | Stoichiometry hIL-1α:DVD-Ig (hIL-1α [2]; [6]) | neutralizing activity against hIL-1α, fold less than that of the chimeric antibodies (hIL-1α [3]) [fold] | IC50 (hIL-1α [3]) [nM] | koff (hIL-1β [4]) [s⁻¹] | kon (hIL-1β [4]) [M⁻¹ s⁻¹] | Kd (hIL-1β [4]) [nM] | Stoichiometry (hIL-1β [4]) | binding affinity to hIL-1β, fold higher than that of DVD1-Ig (hIL-1β [4]) [fold] |
| --- | --- | --- | --- | --- | --- | --- | --- | --- | --- | --- | --- | --- | --- | --- | --- |
| DVD1-Ig: DVD-Ig binding hIL-1α and hIL-1β; VH/VL of 13F5.G5 fused directly to N-terminus of 3D12.E3 VH/VL, no linker (antibody) VH: MQLSGLTSEDSAMYFCVRFPTGNDYYAMDYWGQGTSVTVSSQIQLVQSGPELKKPGETVKISCKASGYTFRNYGMNWVKQAPGKDLKRMAWINTYTGESTYADDFKGRFAFSLETSASTAYLQINNLKNEDTATYFCARGIYYYGSSYAMDYWGQGTSVTVSS VL: PVEADDAATYYCQQNNEDPFTFGSGTKLEIKRNIQMTQTTSSLSASLGDRVTISCRASQDISNCLNWYQQKPDGTVKLLIYYTSRLHSGVPSRFSGSGSGTDYSLTISNLEQEDIATYFCQQGKTLPYAFGGGTKLEINRR | 1.5 | 141 | hIL-1β: 75 Response Unit | 1.0 | 2.3 | 190 | hIL-1α: 107 Response Unit | 1.1 | 3 | 2.3 | 0.00159 | 609000 | 2.6 | 1.5 | – |
| DVD2-Ig: DVD-Ig as DVD1-Ig but with linkers ADAAP (light chain) and AKTTPP (heavy chain) (antibody) VH: MQLSGLTSEDSAMYFCVRFPTGNDYYAMDYWGQGTSVTVSSAKTTPPQIQLVQSGPELKKPGETVKISCKASGYTFRNYGMNWVKQAPGKDLKRMAWINTYTGESTYADDFKGRFAFSLETSASTAYLQINNLKNEDTATYFCARGIYYYGSSYAMDYWGQGTSVTVSS VL: PVEADDAATYYCQQNNEDPFTFGSGTKLEIKRADAAPNIQMTQTTSSLSASLGDRVTISCRASQDISNCLNWYQQKPDGTVKLLIYYTSRLHSGVPSRFSGSGSGTDYSLTISNLEQEDIATYFCQQGKTLPYAFGGGTKLEINR | – | 159 | hIL-1β: 137 Response Unit | 1.3 | 1.8 | 209 | hIL-1α: 131 Response Unit | 1.2 | 3 | 2.9 | 0.00095 | 1.19e+06 | 0.798 | 1.8 | 3 |
